Results published in patent publication US6645501B2, “Anti-pathogen system and methods of use thereof” (Washington University, priority 1997, dated 2003).
Entries after “also recorded” stand apart in the source; their conditions may differ.

B1: TAT-Casp3MUT: catalytically inactive TAT-Casp3 with Met substituted for the active site Cys163 residue (protein)
chain: GRKKRRQRRRGYPYDVPDYACTERQANFLGKIWPGISLDNSYKMDYPEMGLCIIINNKNFHKSTGMTSRSGTDVDAANLRETFRNLKYEVRNKNDLTREEIVELMRDVSKEDHSKRSSFVCVLLSHGEEGIIFGTNGPVDLKKITNFFRGDRCRSLTGKPKLFIIQAMRGTELDCGIETSQVSQNYPIVQNLQGVDDDMACHKIPVEADFLYAYSTAPGYYSWRNSKDGSWFIQSLCAMLKQYADKLEFMHILTRVNRKVATEFESFSFDATFHAKKQIPCIVSMLTKELYFYH
modifications: left off: small tags and cut ends

What was measured:
[1] = system: Jurkat T cells; experiment: FACS and confocal analysis of FITC-labeled TAT fusion proteins added to Jurkat T cells; format: cell-based; conditions: FITC-labeled protein added to media of Jurkat T cells
Experimental: To test the ability of TAT-Casp3 proteins to transduce into cells, TAT-Casp3 proteins were conjugated to fluorescein (FITC), then added directly to the media of Jurkat T cells and analyzed by Flow Cytometry (FACS) (FIGS. 9B-C). Both TAT-Casp3WT and TAT-Casp3MUT proteins rancidly transduced into ˜100% of cells, achieving maximum intracellular concentration in less than 20 min. In addition, based on the narrow peak width before and after addition of FITC labeled proteins, individual cells within the population contain near identical intracellular concentrations of TAT-Casp3-FITC protein. […] Thus, TAT-Casp3 proteins readily transduce into 100% of all cells inca rapid and concentration-dependent fashion.
The generation and transduction of TAT fusion proteins shown in FIGS. 9A-E are explained in more detail as follows: FIG. 9A. Diagram depicting HIV cleavage site sequences and domains of TAT fusion proteins. FIGS. 9B-D. FACS kinetic analysis of fluorescein (FITC) labeled TAT-Casp3WT, TAT-Casp3MUT and TAT-HIV Pr proteins added to cells at 0, 20 and 30 min. FIG. 9E. FACS dose analysis of 3, 6, and 12 nM TAT-Casp3WT-FITC protein added to cells at I hr post-addition. Note rapid, concentration-dependent transduction of all FITC labeled protein into ˜100% of cells and near identical intracellular concentration within the population as measured by FACS peak width of control vs. transduced cells.
(§1) 1. […] See Lissy, N. A., et al. (supra). […] See Ezhevsky, S. A., et al. (supra). […] See Xiang, J., et al., (supra). […] See Xiang, J., et al., (supra). […] See Ezhevsky, S. A., et al. (supra).

[2] = system: Jurkat T cells; experiment: Cytotoxicity of TAT-Casp3 on uninfected Jurkat T cells, viability by Trypan Blue exclusion; conditions: 100 nM TAT-Casp3 or 50 nM TAT-HIV Pr, uninfected Jurkat T cells, 16 hr
Experimental: In addition, the ability of TAT-Casp3 protein to induce apoptosis in cells co-transduced with TAT-HIV Pr protein was tested. Jurkat T cells were treated with 100 nM TAT-Casp3WT or TATCasp3MUT proteins alone or in combination with 50 nM TAT-HIV Pr protein and assayed for cell viability 16 hr post-treatment (FIG. 11A). […] See Salvensen, G. S., et al., Henkart, P. A., Cohen, G. M., Woo, M., et al., Enari, M. et al., Liu, X., et al. (supra).
FIG. 11A Cultures of Jurkat T cells were transduced with combinations of TAT-Casp3WT (WT), TAT-Casp3MUT (MUT) and TAT-HIV Protease (Pr) proteins for 16 hr and analyzed for cell viability. […] FIG. 11B Cultures of Jurkat T cells were co-transduced with TAT-Casp3WT (WT), TAT-Casp3MUT (MUT) proteins in combination with TAT-HIV Pr (Pr) protein and analyzed for kinetics of cell viability as indicated.
1. Cell culture-p16(−) Jurkat T cells (ATCC) were grown as described. See Lissy, N. A., et al. (supra). For in vivo substrate cleavage, 1×10^6 cells were transduced with 100 nM TAT-p16, TAT-A-p16, TAT-Casp3MUT and/or 50 nM TAT-HIV Pr proteins for 1, 5 or 8 hr as indicated and analyzed by anti-p16 (Santa Cruz) or anti-Casp3 (Pharmingen) immunoblot analysis. See Ezhevsky, S. A., et al. (supra). For cytotoxicity of TAT-Casp3 on uninfected cells, 1×10^6 cells were transduced with 100 nM TAT-Casp3WT, TAT-Casp3MUT and/or 50 nM TAT-HIV Pr proteins for 16 hr and assayed for viability by Trypan Blue exclusion and/or genomic DNA damage by TUNEL assay (Trevigen). Number of TUNEL positive cells reported as per high-powered microscopic field with four fields per experiment averaged. TAT-Casp3 activity was measured by incubation of 20 μg of whole cell lysate with 50 μM DEVD-AFC and fluorescent AFC formation measured on a FL500 microplate fluorescence reader (Bio-Tek) as described. See Xiang, J., et al., (supra). Cells were preincubated with 1 μg/ml Ritonavir (Abbott Labs) for 1 hr prior to transduction. For cytotoxicity of TAT-Casp3 on infected cells, Jurkat cultures were infected with 100 ng p24 Ag equivalent NLHX HIV-I strain for 7-14 days, assayed microscopically for cytopathic effects, then replated at 1×10^6/ml and transduced with 100 nM of TAT-Casp3WT or TAT-Casp3MUT proteins for 16 hr followed by exclusionary dye viability analysis. Infected cells were pretreated with 1 μg/ml Ritonavir for 24 hr prior to transduction with TAT-Casp3WT protein. See Xiang, J., et al., (supra). For Flow Cytometry (FACS) analysis, fluorescein (FITC) conjugated TAT fusion proteins were added to Jurkat T cell culture media and 1×10^4 cells were analyzed by FACS as described. See Ezhevsky, S. A., et al. (supra).

[3] = system: Jurkat T cells; experiment: TUNEL assay for degraded genomic DNA in transduced Jurkat T cells; format: cell-based; conditions: for TUNEL positive cells, protein transduced alone: 100 nM TAT-Casp3 or 50 nM TAT-HIV Pr
Experimental: (§2) Additionally, transduced cultures were tested for degraded genomic DNA by TUNEL assay. See Coates, P. J., Molecular methods for the identification of apoptosis in tissues. J. Histotechnology 17: 261 (1994). […] Activation of TAT-Casp3 was also assayed by its ability to cleave an artificial Caspase-3 substrate. […] See Xiang, J., et al., Bax-induced cell death may not require interleukin 1B-converting enzyme-like proteases. Proc. Natl. Acad. Sci. USA 93: 14550 (1996).
(§3) The HIV Protease activates TAT-Casp3WT protein shown in FIGS. 12A-B are explained in more detail as follows. FIG. 12A. […] Abscissa: TUNEL positive cells per high-powered microscopic field; Ctrl, control addition of PBS to cultures; error bars represent SD. FIG. 12B. […] Ctrl, control PBS addition; ocFAS crosslinking, positive control.
as §1

[4] = system: caspase-3 activity (DEVD-AFC cleavage); experiment: Caspase-3 enzyme assay, cleavage of DEVD-AFC by whole cell lysate of transduced Jurkat T cells; format: cell-based; conditions: 6 hr
Experimental: as §2, §3, §1

[5] = target: T1, HIV Protease (Human immunodeficiency virus type 1 group M subtype B, UniProt P04585); experiment: In vivo substrate cleavage by co-transduced TAT-HIV Pr in Jurkat T cells, immunoblot; format: cell-based; conditions: 100 nM substrate, 50 nM TAT-HIV Pr, Jurkat T cells, immunoblot
T1 construct: PCR cloning the HIV Protease gene from HXB2R HIV strain; 6xHis (from the pTAT vector) (N); made in house; the purified protein was added to Jurkat T cells
Experimental: To assay for in vivo cleavage, p 16(−) Jurkat T cells were transduced with 100 nM TAT-Ap16 or control TAT-p16 protein (no HIV cleavage site) alone or in combination with 50 nM TATHIV Pr fusion protein for 5 hr and analyzed by anti-p16 immunoblot for in vivo cleavage at the HIV A proteolytic cleavage site (FIG. 10A). […] Size analysis of the cleaved TAT-A-p 16 protein was consistent with retention of the residual HIV half site present on the N′ terminus of p 16 (FIG. 10A, see lane 4 vs. 5).
Further, the TAT-Casp3MUT protein was transduced in combination with TAT-HIV Pr protein into cells (FIG. 10B).
The in vivo processing in co-transduced cells shown in FIGS. 10A and 10B is explained in more detail as follows. FIG. 10A. Cultures of p16(−) Jurkat T cells were transduced with TAT-p 16 or TAT-A-p 16 substrate proteins in combination with TATHIV Pr proteins for 5 hr and subjected to anti-p 16 immunoblot analysis. […] WCE, HepG2 whole cell lysate containing wild type endogenous p16; A-p16, cleaved TAT-A-16 product retaining the HIV half site on p16. FIG. 10B. Cultures of Jurkat T cells were transduced with TATCasp3MUT protein (TAT-“D” site-p 17 domain-“A” site-p12 domain) alone or in combination with TAT-HIV Pr (Pr) protein as indicated and immunoblotted with anti-Caspase-3 antibodies specific for the p17 domain. TAT-D-p17-A, cleaved product of TAT-Casp3 containing the N′ terminal HIV A half site.
as §1

[6] = system: Jurkat T cells infected with the NLHX strain of HIV-I; experiment: Cytotoxicity of TAT-Casp3 on HIV infected Jurkat cultures, exclusionary dye viability analysis; format: cell-based; conditions: 100 nM, 16 hr, cultures approximately 50% HIV positive
Description: To make this determination, Jurkat T cells were infected for 7-14 days with the NLHX strain of HIV-I and examined microscopically for HIV cytopathic effects. See Westervelt, P., et al., Identification of a determinant within the HIV-1 surface envelope glycoprotein critical for productive infection of cultured primary monocytes. Proc. Natl. Acad. Sci USA 88: 3097 (1991). At the start of each transduction experiment approximately 50% of the culture was HIV positive. HIV infected cultures were transduced for 16 hr with 100 nM TAT-Casp3WT or TATCasp3MUT protein and then assayed for cell viability (FIG. 13). […] In addition, we detected both the appearance of cells containing <2N DNA content and cells with condensed nuclei in TAT-Casp3 treated cells.
To determine if TAT-Casp3WT induced apoptosis was dependent on active HIV Protease in the infected cultures, HIV infected cultures were pretreated with 1 μg/ml Ritonavir prior to transduction with 100 nM TAT-Casp3WT protein (FIG. 5). […] In addition, the observed increased survival of Ritonavir treated cells is consistent with increased longevity of protease inhibitor treated HIV infected cells. See Coffin, J. M., et al. (supra).
The specific killing of HIV infected cells shown in FIG. 5 is explained in more detail as follows. Jurkat T cells were infected for 7-14 days with HIV strain NLHX, then transduced with TAT-Casp3WT (WT) or TAT-Casp3MUT (MUT) proteins for 16 hr and assayed for cell viability. […] Ctrl, control addition of PBS to cultures; abscissa, % viability of HIV positive cells in the population at start of transduction; error bars represent SD.
as §1

Row | Molecule | cells transduced [1] [%] | cytotoxicity when transduced alone [2] | TUNEL positive cells, protein transduced alone [3] | caspase activity, protein transduced alone [4] | cleavage at the HIV cleavage site when co-transduced with TAT-HIV Pr [5] | TUNEL positive cells, co-transduced with TAT-HIV Pr ([3]; 100 nM plus 50 nM TAT-HIV Pr) | effect on viability of HIV positive cells [6] | effect on viability of HIV positive cells ([6]; listed as TATCasp3MUT)
1 | TAT-HIV Pr: transducible HIV Protease, gene from HXB2R HIV strain cloned into pTAT | 100 | absence | only background levels; also recorded: remained at background levels | only background levels | – | – | – | –
2 | B1 | ~100 | – | only background levels; also recorded: remained at background levels | only background levels | specific cleavage | only background; also recorded: remained at background levels | no effect | negligible effects
